Experiments:
HLA-C*14:02 [1] = experiment: IEDB peptide-MHC binding, purified MHC/direct/fluorescence; filed as Kd, often an IC50 or EC50 that approximates it; ≥ and ≤ were set here for values at or beyond the usual limits of such assays; settings: source organism: Homo sapiens
HLA-B*44:03 = experiment: IEDB peptide-MHC binding, purified MHC/competitive/fluorescence; ≥ and ≤ were set here for values at or beyond the usual limits of such assays; settings: source organism: Homo sapiens
HLA-B*40:02 = experiment: as above; settings: source organism: Homo sapiens
HLA-A*03:01 = experiment: as above; settings: source organism: Homo sapiens
HLA-B*18:01 = experiment: as above; settings: source organism: Homo sapiens
HLA-B*08:01 = experiment: as above; settings: source organism: Homo sapiens
HLA-B*37:01 = experiment: as above; settings: source organism: Homo sapiens
HLA-A*01:01 [2] = experiment: as above; settings: source organism: Homo sapiens
HLA-B*07:02 = experiment: as above; settings: source organism: Homo sapiens
HLA-A*25:01 = experiment: as above; settings: source organism: Homo sapiens
HLA-B*53:01 = experiment: as above; settings: source organism: Homo sapiens
HLA-B*51:01 = experiment: as above; settings: source organism: Homo sapiens
HLA-A*29:02 [3] = experiment: as above; settings: source organism: Homo sapiens
HLA-A*24:02 = experiment: as above; settings: source organism: Homo sapiens
HLA-B*58:01 = experiment: as above; settings: source organism: Homo sapiens
HLA-A*68:02 = experiment: as above; settings: source organism: Homo sapiens
HLA-A*02:01 = experiment: as above; settings: source organism: Homo sapiens
HLA-A*31:01 = experiment: as above; settings: source organism: Homo sapiens
HLA-B*14:02 = experiment: as above; settings: source organism: Homo sapiens
HLA-A*11:01 = experiment: as above; settings: source organism: Homo sapiens
HLA-B*35:01 = experiment: as above; settings: source organism: Homo sapiens
HLA-A*01:01 [4] = experiment: IEDB peptide-MHC binding, purified MHC/competitive/fluorescence; filed as Kd, often an IC50 or EC50 that approximates it; ≥ and ≤ were set here for values at or beyond the usual limits of such assays; settings: source organism: Rattus norvegicus
HLA-B*45:06 = experiment: as above
HLA-C*04:01 = experiment: as above; settings: source organism: Rattus norvegicus
HLA-A*29:02 [5] = experiment: as above; settings: source organism: Rattus norvegicus
HLA-A*80:01 = experiment: as above; settings: source organism: Rattus norvegicus
HLA-B*15:42 = experiment: as above
HLA-B*83:01 = experiment: as above
HLA-C*14:02 [6] = experiment: as above
HLA-C*05:01 = experiment: IEDB peptide-MHC binding, purified MHC/direct/fluorescence; filed as Kd, often an IC50 or EC50 that approximates it; ≥ and ≤ were set here for values at or beyond the usual limits of such assays; settings: source organism: Mycobacterium tuberculosis variant bovis BCG str. Pasteur 1173P2
HLA-A*69:01 = experiment: as above; settings: source organism: Mycobacterium tuberculosis
HLA-C*08:02 = experiment: as above
HLA-A*02:03 = experiment: as above; settings: source organism: Mycobacterium tuberculosis str. Haarlem
HLA-A*32:15 = experiment: IEDB peptide-MHC binding, purified MHC/competitive/fluorescence; filed as Kd, often an IC50 or EC50 that approximates it; ≥ and ≤ were set here for values at or beyond the usual limits of such assays; settings: source organism: Mycobacterium tuberculosis variant bovis BCG str. Pasteur 1173P2
HLA-B*46:01 = experiment: as above; settings: source organism: Mycobacterium tuberculosis variant bovis BCG str. Pasteur 1173P2
HLA-C*15:02 = experiment: IEDB peptide-MHC binding, purified MHC/direct/fluorescence; filed as Kd, often an IC50 or EC50 that approximates it; ≥ and ≤ were set here for values at or beyond the usual limits of such assays; settings: source organism: Corynebacterium glutamicum ATCC 13032
HLA-C*06:02 = experiment: IEDB peptide-MHC binding, purified MHC/competitive/fluorescence; filed as Kd, often an IC50 or EC50 that approximates it; ≥ and ≤ were set here for values at or beyond the usual limits of such assays; settings: source organism: Corynebacterium glutamicum ATCC 13032
HLA-A*68:23 = experiment: as above; settings: source organism: Corynebacterium glutamicum ATCC 13032
[7] = source organism: Rattus norvegicus
[8] = source organism: Mycobacterium tuberculosis variant bovis BCG str. Pasteur 1173P2
[9] = source organism: Corynebacterium glutamicum ATCC 13032

Sequence: FPHTELANL
- Kd (HLA-C*14:02 [1]): 792 nM
- IC50 (HLA-B*44:03): ≥ 20 µM
- IC50 (HLA-B*40:02): 734 nM
- IC50 (HLA-A*03:01): ≥ 20 µM
- IC50 (HLA-B*18:01): 422 nM
- IC50 (HLA-B*08:01): 1080 nM
- IC50 (HLA-B*37:01): ≥ 20 µM
- IC50 (HLA-A*01:01 [2]): ≥ 20 µM
- IC50 (HLA-B*07:02): 112 nM
- IC50 (HLA-A*25:01): ≥ 20 µM
- IC50 (HLA-B*53:01): 221 nM
- IC50 (HLA-B*51:01): 685 nM
- IC50 (HLA-A*29:02 [3]): ≥ 20 µM
- IC50 (HLA-A*24:02): ≥ 20 µM
- IC50 (HLA-B*58:01): ≥ 20 µM
- IC50 (HLA-A*68:02): 224 nM
- IC50 (HLA-A*02:01): ≥ 20 µM
- IC50 (HLA-A*31:01): ≥ 20 µM
- IC50 (HLA-B*14:02): ≥ 20 µM
- IC50 (HLA-A*11:01): ≥ 20 µM
- IC50 (HLA-B*35:01): 8.5 nM

Sequence: YYRYPTGESY
- Kd (HLA-A*01:01 [4]): ≥ 20 µM
- Kd (HLA-B*45:06; [7]): ≥ 5 µM
- Kd (HLA-C*04:01): ≥ 5 µM
- Kd (HLA-A*29:02 [5]): ≤ 0.1 nM
- Kd (HLA-A*80:01): 1460 nM
- Kd (HLA-B*15:42; [7]): ≥ 5 µM
- Kd (HLA-B*83:01; [7]): ≥ 5 µM
- Kd (HLA-C*14:02 [6]; [7]): ≤ 0.1 nM

Sequence: FMFDYIPPV
- Kd (HLA-C*05:01): ≥ 20 µM
- Kd (HLA-A*69:01): 1.3 nM
- Kd (HLA-C*08:02; [8]): 368 nM
- Kd (HLA-A*02:03): ≤ 1 nM
- Kd (HLA-A*32:15): 203 nM
- Kd (HLA-B*46:01): 10.1 nM
- Kd (HLA-B*45:06; [8]): ≥ 5 µM
- Kd (HLA-B*15:42; [8]): 3.86 µM
- Kd (HLA-B*83:01; [8]): ≥ 5 µM
- Kd (HLA-C*14:02 [6]; [8]): 5.7 nM

Sequence: RIFPATHYV
- Kd (HLA-A*69:01): 18.8 nM
- Kd (HLA-C*15:02): 17 nM
- Kd (HLA-C*08:02; [9]): ≥ 20000 nM
- Kd (HLA-C*06:02): 35.7 nM
- Kd (HLA-B*45:06; [9]): ≥ 5 µM
- Kd (HLA-A*68:23): 197 nM
- Kd (HLA-B*15:42; [9]): ≥ 5 µM
- Kd (HLA-B*83:01; [9]): ≥ 5 µM
